The values that follow come from patent US20080050387A1, “Non-Androgen Dependent Roles for Androgen Receptor and Non-Androgen Related Inhibitors of Androgen Receptor” (priority 2003, published 2008).

Where a chain is given by its changes, count along the chain named.

Assay [1] concerns AR. The assay can be described thus: AR transactivation reporter gene assay in H1299 cells with ARA67. The assay is classed as cell-based, human. The conditions noted are these: H1299 cells, 600 ng construct, MMTV-luc. The method, then:
H1299 and COS-1 cells were maintained in Dulbecco's modified Eagle's medium (DMEM) (Life Technologies, Inc.) supplemented with 10% heat inactivated fetal bovine serum (FBS). LNCap cells were maintained in RPMI 1640 supplemented with […]. All media contain 100 units penicillin, 100 μg/ml streptomycin and 2 mM L-glutamine. Cells were seeded to a density of 50-60% confluency for transfection. In transfections where H1299 and COS-1 cells were used, the calcium phosphate precipitation method was used as described (Pan H J, et al. 1999. Endocrine 11:321-327) unless otherwise noted. […] In other reporter gene assays, where ligand treatment was required, cell culture media were changed to DMEM containing 10% charcoal-dextran-stripped FBS (CD-FBS) 2 h before transfection. After 16-18 h transfection, cells were treated with medium containing either vehicle or ligands for another 20-24 h and then cells were harvested. With LNCap cells transfection, the cells were treated with fresh RPMI 1640 containing 10% CD-FBS before transfection with SuperFect performed according to the manufacturer's protocol (Qiagen). After transfection, cells were allowed to recover in fresh RPMI 1640 containing 10% CD-FBS for 8-12 h, and then treated with either vehicle or ligands for another 20-24 h before harvesting. Each experiment was repeated at least three times.
Target sequence in this assay (P10275 with tags, fused parts or gaps DEL79-80/DUP473-473): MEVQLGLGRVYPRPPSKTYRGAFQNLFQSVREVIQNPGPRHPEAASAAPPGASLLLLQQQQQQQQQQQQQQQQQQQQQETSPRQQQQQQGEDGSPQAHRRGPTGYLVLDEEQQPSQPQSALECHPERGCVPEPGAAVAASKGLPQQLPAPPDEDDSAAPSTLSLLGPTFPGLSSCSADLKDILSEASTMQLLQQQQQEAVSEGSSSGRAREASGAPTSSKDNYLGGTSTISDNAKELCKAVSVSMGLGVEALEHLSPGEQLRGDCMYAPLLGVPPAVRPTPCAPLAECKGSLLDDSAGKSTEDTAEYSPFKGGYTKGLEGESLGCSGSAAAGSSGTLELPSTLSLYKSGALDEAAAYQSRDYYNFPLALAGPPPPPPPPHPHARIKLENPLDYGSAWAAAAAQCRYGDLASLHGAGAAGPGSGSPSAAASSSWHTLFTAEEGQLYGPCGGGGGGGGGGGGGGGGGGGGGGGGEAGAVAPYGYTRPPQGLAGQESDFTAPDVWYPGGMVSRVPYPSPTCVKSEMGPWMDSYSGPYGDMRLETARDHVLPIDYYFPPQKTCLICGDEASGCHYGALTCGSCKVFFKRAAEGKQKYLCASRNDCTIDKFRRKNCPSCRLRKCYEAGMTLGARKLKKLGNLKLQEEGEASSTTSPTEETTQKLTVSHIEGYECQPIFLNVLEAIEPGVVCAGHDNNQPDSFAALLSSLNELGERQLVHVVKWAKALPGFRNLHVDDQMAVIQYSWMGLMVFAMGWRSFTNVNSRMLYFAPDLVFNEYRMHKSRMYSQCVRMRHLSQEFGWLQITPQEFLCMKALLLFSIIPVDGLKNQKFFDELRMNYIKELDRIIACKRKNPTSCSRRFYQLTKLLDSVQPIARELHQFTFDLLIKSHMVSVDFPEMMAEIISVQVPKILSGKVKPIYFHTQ

For assay [2], the system named is AR (ARN, ARDBD, ARLBD). The assay can be described thus: GST pull-down assay ARA67 / AR. It counts as binding, human. How it is done:
GST-ARN, GST-ARA67 fusion proteins, and GST control protein were expressed in BL21 (DE3)pLysS bacteria strain (Stratagene) and purified with glutathione-Sepharose beads as instructed by the manufacturer (Amersham Pharmacia). In vitro [^35S]methionine-labeled AR, ARN, AR DBD, AR LBD and ARA67 proteins were generated using TNT-coupled Reticulocyte Lysate Systems (Promega). For in vitro interaction, mixtures of glutathione beads bound GST fusion proteins and 5 μl [^35S]methionine-labeled input proteins in 100 μl interaction buffer (20 mM Tris/pH8.0, 60 mM NaCl, 6 mM MgCl2, 1 mM EDTA, 0.05% Nonidet P-40, 1 mM DTT, 8% glycerol, 1 mM PMSF) were incubated in the presence or absence of 10 μM dihydrotestosterone (DHT) on a rotating disk at 4° C. for 2 h. After washing with NETN buffer (20 mM Tris/pH8.0, 100 mM NaCl, 6 mM MgCl2, 1 mM EDTA, 0.5% Nonidet P-40, 1 mM DTT, 8% glycerol, 1 mM PMSF) four times, the bound proteins were separated on 8-13% SDS-PAGE and visualized by autoradiography.

Assay [3] has as its system AR. Description: Mammalian two-hybrid assay hRad9 / AR in PC-3 cells. The assay is classed as cell-based, human. The conditions noted are these: 10 nM DHT; for interaction between AR and full-length hRad9 / interaction between AR and the fragment of hRad9 (aa 327-391): FXXLF motif mutants. The method, then: (§1) PC-3, CWR22R, and LNCaP cell lines were maintained in […] supplemented with 10% fetal calf serum (FCS). Transient transfection for luciferase assays was carried out in 24-well plates (5×10^4 cells per well) using SuperFect as described previously (Lin, H. K., et al., Embo J 21:4037-48 (2002)). DNA mixtures in transfection assay were indicated in each figure. The total amount of transfected DNA was kept constant (1 μg) by adding the corresponding amounts of empty expression plasmids. After transfection, cells were cultured in […] supplemented with 5% charcoal-stripped FCS in the presence or absence of 10 nM dihydrotestosterone (DHT) for 18 h. Luciferase assays were performed as previously described (Yang, L., et al., J Biol Chem 278:16820-7 (2003)). In Western blotting assays, CWR22R or LNCaP cells were transfected by electroporation using 5×10^6 cells/0.4 ml of RPMI medium containing 2% FCS plus 9 μg of the indicated plasmids. 1 μg of EGFP expression vector was used for transfection efficiency. Electroporation was performed at 250 V and 950 μF using Gene Pulser II (Bio-Rad)
Target sequence in this assay (P10275 with tags, fused parts or gaps DEL79-80/DUP473-473): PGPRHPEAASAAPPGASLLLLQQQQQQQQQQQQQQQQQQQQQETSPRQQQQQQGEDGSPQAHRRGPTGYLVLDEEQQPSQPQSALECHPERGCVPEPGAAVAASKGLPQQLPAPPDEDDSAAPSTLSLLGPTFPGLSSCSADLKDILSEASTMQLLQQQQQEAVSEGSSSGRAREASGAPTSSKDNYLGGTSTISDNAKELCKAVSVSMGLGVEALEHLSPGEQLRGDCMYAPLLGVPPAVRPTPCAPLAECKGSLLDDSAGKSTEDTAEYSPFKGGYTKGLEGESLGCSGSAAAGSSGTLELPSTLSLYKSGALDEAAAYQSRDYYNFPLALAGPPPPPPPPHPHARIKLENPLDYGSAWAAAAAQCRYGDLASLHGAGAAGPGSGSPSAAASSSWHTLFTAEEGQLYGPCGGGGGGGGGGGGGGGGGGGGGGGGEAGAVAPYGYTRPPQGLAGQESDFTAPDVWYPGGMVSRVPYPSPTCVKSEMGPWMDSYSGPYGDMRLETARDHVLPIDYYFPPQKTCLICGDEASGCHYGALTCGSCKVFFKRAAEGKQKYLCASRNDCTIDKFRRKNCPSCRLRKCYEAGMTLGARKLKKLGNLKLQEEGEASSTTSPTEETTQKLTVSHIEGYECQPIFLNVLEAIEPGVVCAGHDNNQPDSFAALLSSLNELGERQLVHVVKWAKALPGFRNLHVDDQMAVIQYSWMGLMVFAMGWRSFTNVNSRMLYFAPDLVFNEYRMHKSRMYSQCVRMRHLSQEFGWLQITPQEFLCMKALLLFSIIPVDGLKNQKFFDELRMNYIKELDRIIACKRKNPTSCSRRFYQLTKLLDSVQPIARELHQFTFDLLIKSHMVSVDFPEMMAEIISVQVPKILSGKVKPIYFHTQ

The test system of assay [4] is AR. The assay can be described thus: AR transactivation MMTV-LUC assay in PC-3 cells with hRad9. The assay is classed as cell-based, human. Particulars: MMTV-LUC, 10 nM DHT. The method, then:
as §1

Assay [5] concerns AR (DBD-LBD, LBD, DBD). The assay can be described thus: Yeast two-hybrid / liquid β-gal assay hRad9 fragment / AR domains. The assay is classed as cell-based, human. The source says:
The DBD and LBD of AR cDNA was amplified and was cloned into the NdeI and BamHI site of pGBKT7 (Clontech). Yeast strain AH109 was transformed with the vector encoding GAL4 DBD-AR-DBD-LBD fusion and was mated with yeast strain Y187 pretransformed with the human ovary […] cDNA library (Clontech). The yeast clones were selected following the manufacturer's instruction. The positive clones were confirmed by clone lift assay and purified plasmids were retransformed into yeast strain AH109 with bait plasmids. The interaction specificity was further confirmed by liquid […] assay.

B1: ARA67281-585: C-terminal region of ARA67, residues 281-585 (protein)
chain: GSKHPKYSDTLLDYGFYLLNVDNICQSVAIYQAALDIRQSVFGGKNIHVATAHEDLAYSSYVHQYSSGKFDNALFHAERAIGIITHILPEDHLLLASSKRVKALILEEIAIDCHNKETEQRLLQEAHDLHLSSLQLAKKAFGEFNVQTAKHYGNLGRLYQSMRKFKEAEEMHIKAIQIKEQLLGQEDYEVALSVGHLASLYNYDMNQYENAEKLYLRSIAIGKKLFGEGYSGLEYDYRGLIKLYNSIGNYEKVFEYHNVLSNWNRLRDRQYSVTDALEDVSTSPQSTEEVVQSFLISQNVEGPSC
As to B1, the “suppression of AR transactivation by ARA67 fragments” value (“suppression of AR transactivation” for short) in assay [1] is given as “could also suppress AR transactivation”. In addition, in assay [2], the “interaction with ARN” value was “relatively weak”.

B2: ARA67281-550: truncated ARA67 fragment, residues 281-550 (protein)
chain: GSKHPKYSDTLLDYGFYLLNVDNICQSVAIYQAALDIRQSVFGGKNIHVATAHEDLAYSSYVHQYSSGKFDNALFHAERAIGIITHILPEDHLLLASSKRVKALILEEIAIDCHNKETEQRLLQEAHDLHLSSLQLAKKAFGEFNVQTAKHYGNLGRLYQSMRKFKEAEEMHIKAIQIKEQLLGQEDYEVALSVGHLASLYNYDMNQYENAEKLYLRSIAIGKKLFGEGYSGLEYDYRGLIKLYNSIGNYEKVFEYHNVLSNWNRLRDRQ
For the molecule B2, the “suppression of AR transactivation” value in assay [1] is listed as “could also suppress AR transactivation”. Besides, the “interaction with ARN” value in assay [2] is on record as “slightly stronger interaction”.

B3: ARA671-280: N-terminal region of ARA67, residues 1-280 (protein)
chain: MAAVELEWIPETLYNTAISAVVDNYIRSRRDIRSLPENIQFDVYYKLYQQGRLCQLGSEFCELEVFAKVLRALDKRHLLHHCFQALMDHGVKVASVLAYSFSRRCSYIAESDAAVKEKAIQVGFVLGGFLSDAGWYSDAEKVFLSCLQLCTLHDEMLHWFRAVECCVRLLHVRNGNCKYHLGEETFKLAQTYMDKLSKHGQQANKAALYGELCALLFAKSHYDEAYKWCIEAMKEITAGLPVKVVVDVLRQASKACVVKREFKKAEQLIKHAVYLARDHF
Turning to B3, the “suppression of AR transactivation” value in assay [1] was “better suppressor than ARA67281-550 and ARA67281-585”. In assay [2], the “interaction with ARN” value is “relatively weak”.

B4: ARA678-140: truncated ARA67 fragment, residues 8-140 (protein)
chain: WIPETLYNTAISAVVDNYIRSRRDIRSLPENIQFDVYYKLYQQGRLCQLGSEFCELEVFAKVLRALDKRHLLHHCFQALMDHGVKVASVLAYSFSRRCSYIAESDAAVKEKAIQVGFVLGGFLSDAGWYSDAE
On to B4, for which the “interaction with ARN” value in assay [2] is on record as “slightly stronger interaction”.

B5: AXXLF: hRad9 mutant, F361 converted to Ala (protein, UniProt Q99638 1-391, looked up, variant F361A)
Cell cycle checkpoint control …: MKCLVTGGNVKVLGKAVHSLSRIGDELYLEPLEDGLSLRTVNSSRSAYACFLFAPLFFQQYQAATPGQDLLRCKILMKSFLSVFRSLAMLEKTVEKCCISLNGRSSRLVVQLHCKFGVRKTHNLSFQDCESLQAVFDPASCPHMLRAPARVLGEAVLPFSPALAEVTLGIGRGRRVILRSYHEEEADSTAKAMVTEMCLGEEDFQQLQAQEGVAITFCLKEFRGLLSFAESANLNLSIHFDAPGRPAIFTIKDSLLDGHFVLATLSDTDSHSQDLGSPERHQPVPQLQAHSTPHPDDFANDDIDSYMIAMETTIGNEGSRVLPSISLSPGPQPPKSPGPHSEEEDEAEPSTVPGTPPPKKARSLFFGSILAPVRSPQGPSPVLAEDSEGEG
For the molecule B5, in assay [3], the “interaction between AR and full-length hRad9” value is listed as “reduced”; the “interaction between AR and the fragment of hRad9 (aa 327-391)” value is “decreased dramatically”.

B6: FXXAA: hRad9 mutant, L364 and F365 converted to Ala (protein, UniProt Q99638 1-391, looked up, variant L364A F365A)
Cell cycle checkpoint control …: B5 Cell cycle checkpoint control … with A361F, L364A, F365A
B6: in assay [3], the “interaction between AR and full-length hRad9” value was “reduced”; the “interaction between AR and the fragment of hRad9 (aa 327-391)” value is reported as “decreased dramatically”. Moreover, in assay [4], the “transcriptional activity of AR” value is given as “only marginal effect”.

B7: ARA671-550: ARA67 lacking the PEST sequence (protein, UniProt Q92624 1-550, looked up, fragment)
chain: MAAVELEWIPETLYNTAISAVVDNYIRSRRDIRSLPENIQFDVYYKLYQQGRLCQLGSEFCELEVFAKVLRALDKRHLLHHCFQALMDHGVKVASVLAYSFSRRCSYIAESDAAVKEKAIQVGFVLGGFLSDAGWYSDAEKVFLSCLQLCTLHDEMLHWFRAVECCVRLLHVRNGNCKYHLGEETFKLAQTYMDKLSKHGQQANKAALYGELCALLFAKSHYDEAYKWCIEAMKEITAGLPVKVVVDVLRQASKACVVKREFKKAEQLIKHAVYLARDHFGSKHPKYSDTLLDYGFYLLNVDNICQSVAIYQAALDIRQSVFGGKNIHVATAHEDLAYSSYVHQYSSGKFDNALFHAERAIGIITHILPEDHLLLASSKRVKALILEEIAIDCHNKETEQRLLQEAHDLHLSSLQLAKKAFGEFNVQTAKHYGNLGRLYQSMRKFKEAEEMHIKAIQIKEQLLGQEDYEVALSVGHLASLYNYDMNQYENAEKLYLRSIAIGKKLFGEGYSGLEYDYRGLIKLYNSIGNYEKVFEYHNVLSNWNRLRDRQ
Take B7: in assay [1], the “suppression of AR transactivation” value was “didn't show a stronger suppression effect than full length ARA67”.

B8: f-hRad9: fragment aa 327-391 of hRad9 containing the FXXLF motif (protein, UniProt Q99638 327-391, looked up, fragment)
chain: LSPGPQPPKSPGPHSEEEDEAEPSTVPGTPPPKKFRSLFFGSILAPVRSPQGPSPVLAEDSEGEG
For the molecule B8, the “interaction with AR” value in assay [3] is listed as “androgen-dependent interactions were detected”. The “interaction with AR LBD” value in assay [5] (AH109 yeast cells, presence of androgen) was “interacted”. The “liquid β-gal assay induction with the AR-DBD-LBD” value in assay [5] (yeast, presence of DHT) is listed as “strong induction”.

B9: GST-ARA67170-338: GST-fused ARA67 fragment 170-338, which contains the LXXLL motif (protein)
chain: LHVRNGNCKYHLGEETFKLAQTYMDKLSKHGQQANKAALYGELCALLFAKSHYDEAYKWCIEAMKEITAGLPVKVVVDVLRQASKACVVKREFKKAEQLIKHAVYLARDHFGSKHPKYSDTLLDYGFYLLNVDNICQSVAIYQAALDIRQSVFGGKNIHVATAHEDLAY
With B9, in assay [2], the “interaction with AR LBD” value is on record as “no interaction” and the “interaction with ARN” value is listed as “very weak interaction”.
